{
  "source": "the supplement of paper PMC5998384",
  "key": {"[1]": {"test_system": "HeLa Kyoto", "assay": "solubility change mitosis vs G1/S (difference of NP-40 vs SDS log2 ratios) (log2 ratio difference); higher = more soluble in mitosis"}, "[2]": {"test_system": "HeLa Kyoto", "assay": "thermal stability score vs G1/S (z-score of summed log2 fold changes over temperatures); higher = more thermally stable than in G1/S"}, "[3]": {"test_system": "HeLa Kyoto", "assay": "solubility in G1/S (NP-40 vs SDS abundance) (log2 ratio); higher = more soluble", "conditions": "cell cycle stage: G1/S"}, "[4]": {"test_system": "HeLa Kyoto", "assay": "melting temperature (median over replicates), in situ; higher = more thermally stable"}, "[5]": {"conditions": "cell cycle stage: early G1 (4.5 h after nocodazole release)"}},
  "data": [
    {"substance": "MAASGESGTSGGGGSTEEAFMTFYSEVKQIEKRDSVLTSKNQIERLTRPGSSYFNLNPFEVLQIDPEVTDEEIKKRFRQLSILVHPDKNQDDADRAQKAFEAVDKAYKLLLDQEQKKRALDVIQAGKEYVEHTVKERKKQLKKEGKPTIVEEDDPELFKQAVYKQTMKLFAELEIKRKEREAKEMHERKRQREEEIEAQEKAKREREWQKNFEESRDGRVDSWRNFQANTKGKKEKKNRTFLRPPKVKMEQRE [DNAJC8]", "values": [
      {"measurement": "solubility change mitosis (log2)", "setting": "[1]", "value": 0.145},
      {"measurement": "thermal stability score", "setting": "[2]; [5]", "value": 1.39},
      {"measurement": "thermal stability score", "setting": "[2]; cell cycle stage: mitosis", "value": 0.712},
      {"measurement": "solubility in G1/S (log2)", "setting": "[3]", "value": 0.748},
      {"measurement": "melting temperature", "setting": "[4]; cell cycle stage: G1/S", "value": 50.1, "unit": "°C"},
      {"measurement": "melting temperature", "setting": "[4]; cell cycle stage: mitosis", "value": 51.5, "unit": "°C"}
    ]},
    {"substance": "MDTPENVLQMLEAHMQSYKGNDPLGEWERYIQWVEENFPENKEYLITLLEHLMKEFLDKKKYHNDPRFISYCLKFAEYNSDLHQFFEFLYNHGIGTLSSPLYIAWAGHLEAQGELQHASAVLQRGIQNQAEPREFLQQQYRLFQTRLTETHLPAQARTSEPLHNVQVLNQMITSKSNPGNNMACISKNQGSELSGVISSACDKESNMERRVITISKSEYSVHSSLASKVDVEQVVMYCKEKLIRGESEFSFEELRAQKYNQRRKHEQWVNEDRHYMKRKEANAFEEQLLKQKMDELHKKLHQVVETSHEDLPASQERSEVNPARMGPSVGSQQELRAPCLPVTYQQTPVNMEKNPREAPPVVPPLANAISAALVSPATSQSIAPPVPLKAQTVTDSMFAVASKDAGCVNKSTHEFKPQSGAEIKEGCETHKVANTSSFHTTPNTSLGMVQATPSKVQPSPTVHTKEALGFIMNMFQAPTLPDISDDKDEWQSLDQNEDAFEAQFQKNVRSSGAWGVNKIISSLSSAFHVFEDGNKENYGLPQPKNKPTGARTFGERSVSRLPSKPKEEVPHAEEFLDDSTVWGIRCNKTLAPSPKSPGDFTSAAQLASTPFHKLPVESVHILEDKENVVAKQCTQATLDSCEENMVVPSRDGKFSPIQEKSPKQALSSHMYSASLLRLSQPAAGGVLTCEAELGVEACRLTDTDAAIAEDPPDAIAGLQAEWMQMSSLGTVDAPNFIVGNPWDDKLIFKLLSGLSKPVSSYPNTFEWQCKLPAIKPKTEFQLGSKLVYVHHLLGEGAFAQVYEATQGDLNDAKNKQKFVLKVQKPANPWEFYIGTQLMERLKPSMQHMFMKFYSAHLFQNGSVLVGELYSYGTLLNAINLYKNTPEKVMPQGLVISFAMRMLYMIEQVHDCEIIHGDIKPDNFILGNGFLEQDDEDDLSAGLALIDLGQSIDMKLFPKGTIFTAKCETSGFQCVEMLSNKPWNYQIDYFGVAATVYCMLFGTYMKVKNEGGECKPEGLFRRLPHLDMWNEFFHVMLNIPDCHHLPSLDLLRQKLKKVFQQHYTNKIRALRNRLIVLLLECKRSRK [BUB1]", "values": [
      {"measurement": "solubility change mitosis (log2)", "setting": "[1]", "value": -0.112},
      {"measurement": "thermal stability score", "setting": "[2]; [5]", "value": 0.554},
      {"measurement": "thermal stability score", "setting": "[2]; cell cycle stage: mitosis", "value": 1.15},
      {"measurement": "solubility in G1/S (log2)", "setting": "[3]", "value": -0.019},
      {"measurement": "melting temperature", "setting": "[4]; cell cycle stage: G1/S", "value": 48.8, "unit": "°C"},
      {"measurement": "melting temperature", "setting": "[4]; cell cycle stage: mitosis", "value": 49.9, "unit": "°C"}
    ]},
    {"substance": "MNFLRGVMGGQSAGPQHTEAETIQKLCDRVASSTLLDDRRNAVRALKSLSKKYRLEVGIQAMEHLIHVLQTDRSDSEIIGYALDTLYNIISNEEEEEVEENSTRQSEDLGSQFTEIFIKQQENVTLLLSLLEEFDFHVRWPGVKLLTSLLKQLGPQVQQIILVSPMGVSRLMDLLADSREVIRNDGVLLLQALTRSNGAIQKIVAFENAFERLLDIISEEGNSDGGIVVEDCLILLQNLLKNNNSNQNFFKEGSYIQRMKPWFEVGDENSGWSAQKVTNLHLMLQLVRVLVSPTNPPGATSSCQKAMFQCGLLQQLCTILMATGVPADILTETINTVSEVIRGCQVNQDYFASVNAPSNPPRPAIVVLLMSMVNERQPFVLRCAVLYCFQCFLYKNQKGQGEIVSTLLPSTIDATGNSVSAGQLLCGGLFSTDSLSNWCAAVALAHALQENATQKEQLLRVQLATSIGNPPVSLLQQCTNILSQGSKIQTRVGLLMLLCTWLSNCPIAVTHFLHNSANVPFLTGQIAENLGEEEQLVQGLCALLLGISIYFNDNSLESYMKEKLKQLIEKRIGKENFIEKLGFISKHELYSRASQKPQPNFPSPEYMIFDHEFTKLVKELEGVITKAIYKSSEEDKKEEEVKKTLEQHDNIVTHYKNMIREQDLQLEELRQQVSTLKCQNEQLQTAVTQQVSQIQQHKDQYNLLKIQLGKDNQHQGSYSEGAQMNGIQPEEIGRLREEIEELKRNQELLQSQLTEKDSMIENMKSSQTSGTNEQSSAIVSARDSEQVAELKQELATLKSQLNSQSVEITKLQTEKQELLQKTEAFAKSVEVQGETETIIATKTTDVEGRLSALLQETKELKNEIKALSEERTAIKEQLDSSNSTIAILQTEKDKLELEITDSKKEQDDLLVLLADQDQKILSLKNKLKDLGHPVEEEDELESGDQEDEDDESEDPGKDLDHI [USO1]", "values": [
      {"measurement": "solubility change mitosis (log2)", "setting": "[1]", "value": -0.0652},
      {"measurement": "thermal stability score", "setting": "[2]; [5]", "value": 2.79},
      {"measurement": "thermal stability score", "setting": "[2]; cell cycle stage: mitosis", "value": 1.73},
      {"measurement": "solubility in G1/S (log2)", "setting": "[3]", "value": 0.289},
      {"measurement": "melting temperature", "setting": "[4]; cell cycle stage: G1/S", "value": 51.2, "unit": "°C"},
      {"measurement": "melting temperature", "setting": "[4]; cell cycle stage: mitosis", "value": 50.6, "unit": "°C"}
    ]},
    {"substance": "MQTPVNIPVPVLRLPRGPDGFSRGFAPDGRRAPLRPEVPEIQECPIAQESLESQEQRARAALRERYLRSLLAMVGHQVSFTLHEGVRVAAHFGATDLDVANFYVSQLQTPIGVQAEALLRCSDIISYTFKP [GEMIN7]", "values": [
      {"measurement": "solubility change mitosis (log2)", "setting": "[1]", "value": -0.0302},
      {"measurement": "thermal stability score", "setting": "[2]; [5]", "value": -0.755},
      {"measurement": "thermal stability score", "setting": "[2]; cell cycle stage: mitosis", "value": -0.344},
      {"measurement": "solubility in G1/S (log2)", "setting": "[3]", "value": -0.401},
      {"measurement": "melting temperature", "setting": "[4]; cell cycle stage: G1/S", "value": 53, "unit": "°C"}
    ]},
    {"substance": "SLC27A4", "values": [
      {"measurement": "solubility change mitosis (log2)", "setting": "[1]", "value": -0.138},
      {"measurement": "thermal stability score", "setting": "[2]; [5]", "value": 0.342},
      {"measurement": "thermal stability score", "setting": "[2]; cell cycle stage: mitosis", "value": 0.581},
      {"measurement": "solubility in G1/S (log2)", "setting": "[3]", "value": -0.211},
      {"measurement": "melting temperature", "setting": "[4]; cell cycle stage: G1/S", "value": 50.3, "unit": "°C"},
      {"measurement": "melting temperature", "setting": "[4]; cell cycle stage: mitosis", "value": 50.9, "unit": "°C"}
    ]},
    {"substance": "MGDVLSTHLDDARRQHIAEKTGKILTEFLQFYEDQYGVALFNSMRHEIEGTGLPQAQLLWRKVPLDERIVFSGNLFQHQEDSKKWRNRFSLVPHNYGLVLYENKAAYERQVPPRAVINSAGYKILTSVDQYLELIGNSLPGTTAKSGSAPILKCPTQFPLILWHPYARHYYFCMMTEAEQDKWQAVLQDCIRHCNNGIPEDSKVEGPAFTDAIRMYRQSKELYGTWEMLCGNEVQILSNLVMEELGPELKAELGPRLKGKPQERQRQWIQISDAVYHMVYEQAKARFEEVLSKVQQVQPAMQAVIRTDMDQIITSKEHLASKIRAFILPKAEVCVRNHVQPYIPSILEALMVPTSQGFTEVRDVFFKEVTDMNLNVINEGGIDKLGEYMEKLSRLAYHPLKMQSCYEKMESLRLDGLQQRFDVSSTSVFKQRAQIHMREQMDNAVYTFETLLHQELGKGPTKEELCKSIQRVLERVLKKYDYDSSSVRKRFFREALLQISIPFLLKKLAPTCKSELPRFQELIFEDFARFILVENTYEEVVLQTVMKDILQAVKEAAVQRKHNLYRDSMVMHNSDPNLHLLAEGAPIDWGEEYSNSGGGGSPSPSTPESATLSEKRRRAKQVVSVVQDEEVGLPFEASPESPPPASPDGVTEIRGLLAQGLRPESPPPAGPLLNGAPAGESPQPKAAPEASSPPASPLQHLLPGKAVDLGPPKPSDQETGEQVSSPSSHPALHTTTEDSAGVQTEF [FAM129B]", "values": [
      {"measurement": "solubility change mitosis (log2)", "setting": "[1]", "value": -0.0461},
      {"measurement": "thermal stability score", "setting": "[2]; [5]", "value": -0.711},
      {"measurement": "thermal stability score", "setting": "[2]; cell cycle stage: mitosis", "value": 2.24},
      {"measurement": "solubility in G1/S (log2)", "setting": "[3]", "value": 0.283},
      {"measurement": "melting temperature", "setting": "[4]; cell cycle stage: G1/S", "value": 51.6, "unit": "°C"},
      {"measurement": "melting temperature", "setting": "[4]; cell cycle stage: mitosis", "value": 51.2, "unit": "°C"}
    ]},
    {"substance": "MARLWGALSLWPLWAAVPWGGAAAVGVRACSSTAAPDGVEGPALRRSYWRHLRRLVLGPPEPPFSHVCQVGDPVLRGVAAPVERAQLGGPELQRLTQRLVQVMRRRRCVGLSAPQLGVPRQVLALELPEALCRECPPRQRALRQMEPFPLRVFVNPSLRVLDSRLVTFPEGCESVAGFLACVPRFQAVQISGLDPNGEQVVWQASGWAARIIQHEMDHLQGCLFIDKMDSRTFTNVYWMKVND [PDF]", "values": [
      {"measurement": "solubility change mitosis (log2)", "setting": "[1]", "value": -0.136},
      {"measurement": "thermal stability score", "setting": "[2]; [5]", "value": 1.03},
      {"measurement": "thermal stability score", "setting": "[2]; cell cycle stage: mitosis", "value": 0.625},
      {"measurement": "solubility in G1/S (log2)", "setting": "[3]", "value": 0.308},
      {"measurement": "melting temperature", "setting": "[4]; cell cycle stage: G1/S", "value": 54.8, "unit": "°C"},
      {"measurement": "melting temperature", "setting": "[4]; cell cycle stage: mitosis", "value": 54.9, "unit": "°C"}
    ]}
  ]
}
